These results are taken from patent US20190367620A1 (Merck KGaA, published 2019).

Holding throughout (assay): SPR; free energy change relative to wild-type D2
Assay [1] has as its target T1, FGFR1 D2 point mutant E47A (human, UniProt P11362 22-254).
T1 chain: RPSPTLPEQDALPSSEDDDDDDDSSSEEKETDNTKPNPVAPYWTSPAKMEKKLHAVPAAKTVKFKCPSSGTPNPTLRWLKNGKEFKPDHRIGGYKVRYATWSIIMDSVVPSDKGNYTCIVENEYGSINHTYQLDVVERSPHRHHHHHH
On the procedure:
(§1) Binding affinities of anti-FGFR1 antibodies to FGFR1 were measured by Surface Plasmon Resonance (SPR) using a GE Healthcare BIAcore 4000 instrument as follows. Goat anti-human Fc antibody (Jackson ImmunoResearch Laboratories #109-005-098) was first immobilized on BIAcore carboxymethylated dextran CM5 chip using direct coupling to free amino groups following the procedure described by the manufacturer. Antibodies were then captured on the CM5 biosensor chip to achieve approximately 200 response units (RU). Binding measurements were performed using the running HBS-EP+ buffer. A 2-fold dilution series of His-tagged FGFR1 proteins were injected at a flow rate of 30 μl/min at 25° C. Association rates (kₒₙ, per mol/s) and dissociation rates (koff, per s) were calculated using a simple 1:1 Langmuir binding model (Biacore 4000 Evaluation Software). The equilibrium dissociation constant (KD, mol) was calculated as the ratio of koff/kₒₙ.
(§2) To obtain a finer, residue-level mapping of the epitope and to complement the HD exchange data, molecular modelling and manual inspection of the crystal structure of FGFR1 [(Beenken et al. 2012); PDB record 3OJV] was used to select solvent exposed residues within and around the epitope identified by HD exchange. The selected residues were mutated either to alanine (large to small) or to glycine if the selected residue was alanine. In total 35 point mutants were designed, expressed and purified in HEK cells, and tested for binding to mAb #A08 using surface plasmon resonance as described in Example 1.8. The affinity of the antibody for wild-type and each mutant was determined and used to calculate the contribution of each epitope residue to the binding energy.
(§3) Variant were compared to wild-type D2. The change in the Gibbs free energy of binding of mutant relative to the wild-type D2 construct (ΔΔGₘᵤₜ) was derived from the ratio of the wild-type and mutant KD.

For assay [2], the target named is T2, FGFR1 D2 point mutant H89A (human, UniProt P11362 22-254).
T2 chain: T1 chain with A47E, H89A
On the procedure: as §1, §2, §3

Assay [3] addresses T3, FGFR1 D2 point mutant D88A (human, UniProt P11362 22-254).
T3 chain: T1 chain with A47E, D88A
On the procedure: as §1, §2, §3

Assay [4] deals with T4, FGFR1 D2 point mutant D106A (human, UniProt P11362 22-254).
T4 chain: T1 chain with A47E, D106A
On the procedure:
as §1, §2, §3

Assay [5] addresses T5, FGFR1 D2 point mutant K48A (human, UniProt P11362 22-254).
T5 chain: T1 chain with A47E, K48A
On the procedure: as §1, §2, §3

The target of assay [6] is T6, FGFR1 D2 point mutant G92A (human, UniProt P11362 22-254).
T6 chain: T1 chain with A47E, G92A
On the procedure:
as §1, §2, §3

The target in assay [7] is T7, FGFR1 D2 point mutant I104A (human, UniProt P11362 22-254).
T7 chain: T1 chain with A47E, I104A
On the procedure: as §1, §2, §3

Assay [8] addresses T8, FGFR1 D2 point mutant H54A (human, UniProt P11362 22-254).
T8 chain: T1 chain with A47E, H54A
On the procedure: as §1, §2, §3

The target of assay [9] is T9, FGFR1 D2 point mutant A55G (human, UniProt P11362 22-254).
T9 chain: T1 chain with A47E, A55G
On the procedure:
as §1, §2, §3

Assay [10] concerns the target T10, FGFR1 D2 point mutant S45A (human, UniProt P11362 22-254).
T10 chain: T1 chain with S45A, A47E
On the procedure: as §1, §2, §3

Where a chain is given by its changes, count along the chain named.

B1: mAb #A08 (antibody, V domains shown)
VH: EVQLQESGPGLVKPSGTLSLTCAVSGGSISSNNWWSWVRQPPGKGLEWIGEIYHSGSTSYNPSLKSRVTISVDKSKNQFSLKLNSVTAADTAVYYCARGTDWFDPWGQGTLVTVSS
VL: QAVLTQPPSVSVAPGQTARITCGGNNIGSESVHWYQQKPGQAPVLVVYDDSDRPSGIPERFSGSNSGNTATLTISRVEAGDEADYYCQVWDSTSDHRVFGGGTKLTVL
notes: Only variable domains are tied to the name mAb #A08 (hit); also called #A08 hit; mAb #08
Take B1: the ΔΔGmut in assay [1] is 0.17 kcal/mol; in [2] it was -0.02 kcal/mol; in [3], -0.1 kcal/mol; in assay [4], 1.92 kcal/mol; in [5], -0.46 kcal/mol; in [6], 0.21 kcal/mol. For the same molecule, the ΔΔGmut in assay [7] was found to be 0.93 kcal/mol; in assay [8] it was 0.37 kcal/mol; in assay [9], 0.07 kcal/mol; in assay [10], 0.05 kcal/mol.
